System: patients with Type 2 diabetes mellitus (T2DM)
Test: Treatment-emergent adverse events incl. serious, fatal, leading to discontinuation (Example 2)
Settings: Safety population
[1] = SOC, PT ≥ 3% in any treatment group

Gly(A21)-Arg(B31)-Arg(B32)-human insulin [Insulin Glargine]
TEAE leading to permanent treatment discontinuation: Abdominal distension (PT): 0 n (%)
TEAE leading to permanent treatment discontinuation: Abdominal pain (PT): 0 n (%)
TEAE leading to permanent treatment discontinuation: Acute myocardial infarction (PT): 1 (0.2%) n (%)
TEAE leading to permanent treatment discontinuation: Acute pulmonary oedema (PT): 1 (0.2%) n (%)
TEAE leading to permanent treatment discontinuation: Alanine aminotransferase increased (PT): 0 n (%)
TEAE leading to permanent treatment discontinuation: Anaphylactic reaction (PT): 0 n (%)
TEAE leading to permanent treatment discontinuation: Atrial fibrillation (PT): 0 n (%)
TEAE leading to permanent treatment discontinuation: Back pain (PT): 0 n (%)
TEAE leading to permanent treatment discontinuation: Bacteraemia (PT): 0 n (%)
TEAE leading to permanent treatment discontinuation: Blood creatinine increased (PT): 0 n (%)
TEAE leading to permanent treatment discontinuation: Bronchitis (PT): 1 (0.2%) n (%)
TEAE leading to permanent treatment discontinuation: Cardiac failure acute (PT): 1 (0.2%) n (%)
TEAE leading to permanent treatment discontinuation: Cardiac failure congestive (PT): 0 n (%)
TEAE leading to permanent treatment discontinuation: Colitis (PT): 0 n (%)
TEAE leading to permanent treatment discontinuation: Comminuted fracture (PT): 1 (0.2%) n (%)
TEAE leading to permanent treatment discontinuation: Cough (PT): 1 (0.2%) n (%)
TEAE leading to permanent treatment discontinuation: Death (PT): 0 n (%)
TEAE leading to permanent treatment discontinuation: Decreased appetite (PT): 0 n (%)
TEAE leading to permanent treatment discontinuation: Depression (PT): 1 (0.2%) n (%)
TEAE leading to permanent treatment discontinuation: Diabetic mononeuropathy (PT): 0 n (%)
TEAE leading to permanent treatment discontinuation: Diarrhoea (PT): 0 n (%)
TEAE leading to permanent treatment discontinuation: Drug hypersensitivity (PT): 1 (0.2%) n (%)
TEAE leading to permanent treatment discontinuation: Dyspepsia (PT): 1 (0.2%) n (%)
TEAE leading to permanent treatment discontinuation: Extradural abscess (PT): 0 n (%)
TEAE leading to permanent treatment discontinuation: Fatigue (PT): 1 (0.2%) n (%)
TEAE leading to permanent treatment discontinuation: Gastritis erosive (PT): 0 n (%)
TEAE leading to permanent treatment discontinuation: Headache (PT): 1 (0.2%) n (%)
TEAE leading to permanent treatment discontinuation: Injection site erythema (PT): 0 n (%)
TEAE leading to permanent treatment discontinuation: Insomnia (PT): 0 n (%)
TEAE leading to permanent treatment discontinuation: Lipase increased (PT): 1 (0.2%) n (%)
TEAE leading to permanent treatment discontinuation: Lung cancer metastatic (PT): 0 n (%)
TEAE leading to permanent treatment discontinuation: Lung neoplasm malignant (PT): 0 n (%)
TEAE leading to permanent treatment discontinuation: Meningitis staphylococcal (PT): 0 n (%)
TEAE leading to permanent treatment discontinuation: Myocardial infarction (PT): 1 (0.2%) n (%)
TEAE leading to permanent treatment discontinuation: Nausea (PT): 0 n (%)
TEAE leading to permanent treatment discontinuation: Pancreatic carcinoma (PT): 1 (0.2%) n (%)
TEAE leading to permanent treatment discontinuation: Rash (PT): 1 (0.2%) n (%)
TEAE leading to permanent treatment discontinuation: Skin burning sensation (PT): 0 n (%)
TEAE leading to permanent treatment discontinuation: Urinary tract infection (PT): 0 n (%)
TEAE leading to permanent treatment discontinuation: Urticaria (PT): 0 n (%)
TEAE leading to permanent treatment discontinuation: Vomiting (PT): 0 n (%)
TEAE: Gastrointestinal disorders [1]: 59 (12.6%) n (%)
TEAE: Infections and infestations [1]: 126 (27.0%) n (%)
TEAE: Musculoskeletal and connective tissue disorders [1]: 41 (8.8%) n (%)
TEAE: Nervous system disorders [1]: 30 (6.4%) n (%)
Serious TEAE: Blood and lymphatic system disorders (SOC): 1 (0.2%) n (%)
Serious TEAE: Cardiac disorders (SOC): 6 (1.3%) n (%)
Serious TEAE: Gastrointestinal disorders (SOC): 0 n (%)
Serious TEAE: General disorders and administration site conditions (SOC): 1 (0.2%) n (%)
Serious TEAE: Hepatobiliary disorders (SOC): 0 n (%)
Serious TEAE: Immune system disorders (SOC): 0 n (%)
Serious TEAE: Infections and infestations (SOC): 2 (0.4%) n (%)
Serious TEAE: Injury, poisoning and procedural complications (SOC): 1 (0.2%) n (%)
Serious TEAE: Investigations (SOC): 1 (0.2%) n (%)
Serious TEAE: Metabolism and nutrition disorders (SOC): 0 n (%)
Serious TEAE: Musculoskeletal and connective tissue disorders (SOC): 1 (0.2%) n (%)
Serious TEAE: Neoplasms benign, malignant and unspecified (incl cysts and polyps) (SOC): 4 (0.9%) n (%)
Serious TEAE: Nervous system disorders (SOC): 1 (0.2%) n (%)
Serious TEAE: Renal and urinary disorders (SOC): 2 (0.4%) n (%)
Serious TEAE: Reproductive system and breast disorders (SOC): 0 n (%)
Serious TEAE: Respiratory, thoracic and mediastinal disorders (SOC): 3 (0.6%) n (%)
Serious TEAE: Skin and subcutaneous tissue disorders (SOC): 0 n (%)
Serious TEAE: Vascular disorders (SOC): 1 (0.2%) n (%)
TEAE leading to death: Cardiac disorders (SOC): 2 (0.4%) n (%)
TEAE leading to death: General disorders and administration site conditions (SOC): 0 n (%)
TEAE leading to death: Neoplasms benign, malignant and unspecified (incl cysts and polyps) (SOC): 1 (0.2%) n (%)
TEAE leading to death: Respiratory, thoracic and mediastinal disorders (SOC): 1 (0.2%) n (%)
TEAE leading to permanent treatment discontinuation: Cardiac disorders (SOC): 3 (0.6%) n (%)
TEAE leading to permanent treatment discontinuation: Gastrointestinal disorders (SOC): 1 (0.2%) n (%)
TEAE leading to permanent treatment discontinuation: General disorders and administration site conditions (SOC): 1 (0.2%) n (%)
TEAE leading to permanent treatment discontinuation: Immune system disorders (SOC): 1 (0.2%) n (%)
TEAE leading to permanent treatment discontinuation: Infections and infestations (SOC): 1 (0.2%) n (%)
TEAE leading to permanent treatment discontinuation: Injury, poisoning and procedural complications (SOC): 1 (0.2%) n (%)
TEAE leading to permanent treatment discontinuation: Investigations (SOC): 1 (0.2%) n (%)
TEAE leading to permanent treatment discontinuation: Metabolism and nutrition disorders (SOC): 0 n (%)
TEAE leading to permanent treatment discontinuation: Musculoskeletal and connective tissue disorders (SOC): 0 n (%)
TEAE leading to permanent treatment discontinuation: Neoplasms benign, malignant and unspecified (incl cysts and polyps) (SOC): 1 (0.2%) n (%)
TEAE leading to permanent treatment discontinuation: Nervous system disorders (SOC): 1 (0.2%) n (%)
TEAE leading to permanent treatment discontinuation: Psychiatric disorders (SOC): 1 (0.2%) n (%)
TEAE leading to permanent treatment discontinuation: Respiratory, thoracic and mediastinal disorders (SOC): 2 (0.4%) n (%)
TEAE leading to permanent treatment discontinuation: Skin and subcutaneous tissue disorders (SOC): 1 (0.2%) n (%)
Patients with any TEAE: 227 (48.6%) n (%)
Patients with any TEAE leading to death: 3 (0.6%) n (%)
Patients with any TEAE leading to permanent treatment discontinuation: 9 (1.9%) n (%)
Patients with any serious TEAE: 19 (4.1%) n (%)
